# Source: US7063946B2, “Methods, reagents, kits and apparatus for protein function analysis” (Meso Scale Technologies, LLC., priority 2001, dated 2006)
# B1: 4013934: IMAGE clone protein: Ephb4, Eph receptor B4 (protein, UniProt P54761 16-987, looked up)
# Ephrin type-B receptor 4: LEETLLNTKLETADLKWVTYPQAEGQWEELSGLDEEQHSVRTYEVCDMKRPGGQAHWLRTGWVPRRGAVHVYATIRFTMMECLSLPRASRSCKETFTVFYYESEADTATAHTPAWMENPYIKVDTVAAEHLTRKRPGAEATGKVNIKTLRLGPLSKAGFYLAFQDQGACMALLSLHLFYKKCSWLITNLTYFPETVPRELVVPVAGSCVANAVPTANPSPSLYCREDGQWAEQQVTGCSCAPGYEAAESNKVCRACGQGTFKPQIGDESCLPCPANSHSNNIGSPVCLCRIGYYRARSDPRSSPCTTPPSAPRSVVHHLNGSTLRLEWSAPLESGGREDLTYAVRCRECRPGGSCLPCGGDMTFDPGPRDLVEPWVAIRGLRPDVTYTFEVAALNGVSTLATGPPPFEPVNVTTDREVPPAVSDIRVTRSSPSSLILSWAIPRAPSGAVLDYEVKYHEKGAEGPSSVRFLKTSENRAELRGLKRGASYLVQVRARSEAGYGPFGQEHHSQTQLDESESWREQLALIAGTAVVGVVLVLVVVIIAVLCLRKQSNGREVEYSDKHGQYLIGHGTKVYIDPFTYEDPNEAVREFAKEIDVSYVKIEEVIGAGEFGEVCRGRLKAPGKKESCVAIKTLKGGYTERQRREFLSEASIMGQFEHPNIIRLEGVVTNSVPVMILTEFMENGALDSFLRLNDGQFTVIQLVGMLRGIASGMRYLAEMSYVHRDLAARNILVNSNLVCKVSDFGLSRFLEENSSDPTYTSSLGGKIPIRWTAPEAIAFRKFTSASDAWSYGIVMWEVMSFGERPYWDMSNQDVINAIEQDYRLPPPPDCPTSLHQLMLDCWQKDRNARPRFPQVVSALDKMIRNPASLKIVARENGGASHPLLDQRQPHYSAFGSVGEWLRAIKMGRYEESFAAAGFGSFEVVSQISAEDLLRIGVTLAGHQKKILASVQHMKSQAKPGAPGGTGGPAQQF
# B2: 4238984: IMAGE clone protein: Kdr, kinase insert domain protein receptor (protein, UniProt P35918 20-1345, looked up)
# Vascular endothelial growth …: ASVGLPGDFLHPPKLSTQKDILTILANTTLQITCRGQRDLDWLWPNAQRDSEERVLVTECGGGDSIFCKTLTIPRVVGNDTGAYKCSYRDVDIASTVYVYVRDYRSPFIASVSDQHGIVYITENKNKTVVIPCRGSISNLNVSLCARYPEKRFVPDGNRISWDSEIGFTLPSYMISYAGMVFCEAKINDETYQSIMYIVVVVGYRIYDVILSPPHEIELSAGEKLVLNCTARTELNVGLDFTWHSPPSKSHHKKIVNRDVKPFPGTVAKMFLSTLTIESVTKSDQGEYTCVASSGRMIKRNRTFVRVHTKPFIAFGSGMKSLVEATVGSQVRIPVKYLSYPAPDIKWYRNGRPIESNYTMIVGDELTIMEVTERDAGNYTVILTNPISMEKQSHMVSLVVNVPPQIGEKALISPMDSYQYGTMQTLTCTVYANPPLHHIQWYWQLEEACSYRPGQTSPYACKEWRHVEDFQGGNKIEVTKNQYALIEGKNKTVSTLVIQAANVSALYKCEAINKAGRGERVISFHVIRGPEITVQPAAQPTEQESVSLLCTADRNTFENLTWYKLGSQATSVHMGESLTPVCKNLDALWKLNGTMFSNSTNDILIVAFQNASLQDQGDYVCSAQDKKTKKRHCLVKQLIILERMAPMITGNLENQTTTIGETIEVTCPASGNPTPHITWFKDNETLVEDSGIVLRDGNRNLTIRRVRKEDGGLYTCQACNVLGCARAETLFIIEGAQEKTNLEVIILVGTAVIAMFFWLLLVIVLRTVKRANEGELKTGYLSIVMDPDELPLDERCERLPYDASKWEFPRDRLKLGKPLGRGAFGQVIEADAFGIDKTATCKTVAVKMLKEGATHSEHRALMSELKILIHIGHHLNVVNLLGACTKPGGPLMVIVEFCKFGNLSTYLRGKRNEFVPYKSKGARFRQGKDYVGELSVDLKRRLDSITSSQSSASSGFVEEKSLSDVEEEEASEELYKDFLTLEHLICYSFQVAKGMEFLASRKCIHRDLAARNILLSEKNVVKICDFGLARDIYKDPDYVRKGDARLPLKWMAPETIFDRVYTIQSDVWSFGVLLWEIFSLGASPYPGVKIDEEFCRRLKEGTRMRAPDYTTPEMYQTMLDCWHEDPNQRPSFSELVEHLGNLLQANAQQDGKDYIVLPMSETLSMEEDSGLSLPTSPVSCMEEEEVCDPKFHYDNTAGISHYLQNSKRKSRPVSVKTFEDIPLEEPEVKVIPDDSQTDSGMVLASEELKTLEDRNKLSPSFGGMMPSKSRESVASEGSNQTSGYQSGYHSDDTDTTVYSSDEAGLLKMVDAAVHADSGTTLRSPPV
# B3: 4239139: IMAGE clone protein: Fgfr4, fibroblast growth factor receptor 4 (protein, UniProt Q03142 17-799, looked up)
# Fibroblast growth factor …: LSLEASEEMEQEPCLAPILEQQEQVLTVALGQPVRLCCGRTERGRHWYKEGSRLASAGRVRGWRGRLEIASFLPEDAGRYLCLARGSMTVVHNLTLLMDDSLTSISNDEDPKTLSSSSSGHVYPQQAPYWTHPQRMEKKLHAVPAGNTVKFRCPAAGNPMPTIHWLKDGQAFHGENRIGGIRLRHQHWSLVMESVVPSDRGTYTCLVENSLGSIRYSYLLDVLERSPHRPILQAGLPANTTAVVGSDVELLCKVYSDAQPHIQWLKHVVINGSSFGADGFPYVQVLKTTDINSSEVEVLYLRNVSAEDAGEYTCLAGNSIGLSYQSAWLTVLPEEDLTWTTATPEARYTDIILYVSGSLVLLVLLLLAGVYHRQVIRGHYSRQPVTIQKLSRFPLARQFSLESRSSGKSSLSLVRGVRLSSSGPPLLTGLVNLDLPLDPLWEFPRDRLVLGKPLGEGCFGQVVRAEAFGMDPSRPDQTSTVAVKMLKDNASDKDLADLVSEMEVMKLIGRHKNIINLLGVCTQEGPLYVIVECAAKGNLREFLRARRPPGPDLSPDGPRSSEGPLSFPALVSCAYQVARGMQYLESRKCIHRDLAARNVLVTEDDVMKIADFGLARGVHHIDYYKKTSNGRLPVKWMAPEALFDRVYTHQSDVWSFEILLWEIFTLGGSPYPGIPVEELFSLLREGHRMERPPNCPSELYGLMRECWHAAPSQRPTFKQLVEALDKVLLAVSEEYLDLRLTFGPFSPSNGDASSTCSSSDSVFSHDPLPLEPSPFPFSDSQTT
# B4: 4190326: IMAGE clone protein: Lyn, Yamaguchi sarcoma viral (vyes1) oncogene homolog (protein, UniProt P25911 2-512, looked up)
# Tyrosine-protein kinase Lyn: GCIKSKRKDNLNDDEVDSKTQPVRNTDRTIYVRDPTSNKQQRPVPEFHLLPGQRFQTKDPEEQGDIVVALYPYDGIHPDDLSFKKGEKMKVLEEHGEWWKAKSLSSKREGFIPSNYVAKVNTLETEEWFFKDITRKDAERQLLAPGNSAGAFLIRESETLKGSFSLSVRDYDPMHGDVIKHYKIRSLDNGGYYISPRITFPCISDMIKHYQKQSDGLCRRLEKACISPKPQKPWDKDAWEIPRESIKLVKKLGAGQFGEVWMGYYNNSTKVAVKTLKPGTMSVQAFLEEANLMKTLQHDKLVRLYAVVTKEEPIYIITEFMAKGSLLDFLKSDEGGKVLLPKLIDFSAQIAEGMAYIERKNYIHRDLRAANVLVSESLMCKIADFGLARVIEDNEYTAREGAKFPIKWTAPEAINFGCFTIKSDVWSFGILLYEIVTYGKIPYPGRTNADVMSALSQGYRMPRMENCPDELYDIMKMCWKEKAEERPTFDYLQSVLDDFYTATEGQYQQQP
# Test system: pEY
# Assay: In vitro kinase library screen: activity towards pEY
# Format: biochemical
# Settings: 5 ul of expressed protein
# Protocol: Proteins were produced in an in vitro transcription and translation reaction. […] The unbound components of the reaction containing endogenous kinases were removed by three washes with TT-buffer (25 mM Tris-HCl buffer pH 7.4 and 0.004% Triton), two five minutes washings with high-salt wash buffer (25 mM Tris-HCl buffer pH 7.4, 0.004% Triton, 1M NaCl and 5 mM DTT) and 3 more washes with TT-buffer. To these immobilized and purified proteins a tyrosine kinase substrate, 5 nM pEY (poly Glu-Tyr, Sigma, MO), was added in a 50 μl reaction solution containing 5 mM MgCl2, 5 mM MnCl2, 100 μM ATP, 25 mM Tris-HCl buffer pH 7.4, 0.05 mM Na3VO4, 0.004% TritonX-100, 2 mM DTT and EDTA-free protease inhibitor (Roche Molecular Biochemicals). This mixture was incubated with shaking at room temperature overnight to allow phosphorylation of the pEY substrate by the immobilized kinases. Following this incubation, 45 μl of this mixture was transferred to a streptavidin or avidin-coated NPT IPR plate coated with biotinylated anti-phosphotyrosine antibody (PY20, Zymed labs, CA) followed by incubation for 30 minutes at room temperature to allow the binding of the phosphorylated pEY substrate to the PY20 coated NPT plate. Following this binding step, 50 ng Sulfo-TAG labeled anti-phosphotyrosine in buffer containing 25 mM Tris-HCl buffer pH 7.4, 5 mM MgCl2, 0.05 mM Na3VO4, 0.004% TritonX-100, 2 mM DTT and 0.05% IgG was added followed by incubation at room temperature for 30 mm. The unbound reagents were removed by one time washing with water, and the TAG label was detected in presence of 150 μl IPR assay buffer (0.4 mM Gly-Gly buffer, pH 7.8, 1 mM EDTA, 0.1 M TPA). The ECL signals were measured using an imaging plate reader.
# (§1) Proteins were produced in an in vitro transcription and translation reaction as described in the Materials and Methods. […] The reaction was stopped by mixing with BB2 buffer. Biotinylated proteins from 50 μl of the mixture (representing 0.5 μl to 5 μl of TnT reaction) were immobilized onto streptavidin or avidin coated NPT-IPR plates by shaking at room temperature for 45 min. The activity of the immobilized protein towards pEY or autophosphorylation was further assayed by the methods described in examples 7 and 8.
row,Molecule,HTS signal
1,B1,"7,357"
2,B2,"107,459"
3,B3,"7,343"
4,B4,"427,178"

# Test system: autophosphorylation (phosphotyrosine)
# Assay: In vitro kinase library screen: autophosphorylation
# Format: biochemical
# Settings: not given
# Protocol: Proteins were produced from DNA plasmids of Mock Luciferase, Promega, tyrosine kinase clone Spleen Tyrosine kinase (SYK, IMAGE ID# 3870426) and Eph receptor-A7 (EphA7, IMAGE ID# 3991628) (Incyte Genomics, CA) and immobilized on streptavidin or avidin coated NPT-IPR plates as described in the Example 7. To promote autophosphorylation in these immobilized and purified proteins, Mn++ ions were added in a 50 μl reaction containing 5 mM MgCl2, 5 mM MnCl2, 100 μM ATP, 25 mM Tris-HCl buffer pH 7.4, 0.05 mM Na3VO4, 0.004% TritonX-100, 2 mM DTT and EDTA-free protease inhibitor (Roche Molecular Biochemicals). This mixture was incubated with shaking at room temperature overnight to allow autophosphorylation. Following this incubation, wells were washed 2 times with TT-buffer and 2 times with water. Following this step, 50 ng Sulfo-TAG labeled anti-phosphotyrosine in buffer containing 25 mM Tris-HCl buffer pH 7.4, 5 mM MgCl2, 0.05 mM Na3VO4, 0.004% TritonX-100, 2 mM DTT and 0.05% IgG in a final volume of 50 μl was added followed by incubation at room temperature for 45 min. The unbound reagents were removed by one time washing with water, and the TAG label was detected in presence of 150 μl IPR assay buffer (0.4 mM Gly—Gly buffer, pH 7.8, 1 mM EDTA, 0.1 M TPA). The ECL signals were measured using an imaging plate reader.
# as §1
row,Molecule,ECL signal
1,B1,"28,275"
2,B2,"61,364"
3,B3,"12,588"
4,B4,"599,680"
